Data as given in patent US20180208680A1 (published 2018).

Experiments:
[1] = biological target: T1, BoNT/C1 holotoxin (Clostridium botulinum, UniProt P18640 2-1291); experiment: yeast scFv FACS
T1 sequence: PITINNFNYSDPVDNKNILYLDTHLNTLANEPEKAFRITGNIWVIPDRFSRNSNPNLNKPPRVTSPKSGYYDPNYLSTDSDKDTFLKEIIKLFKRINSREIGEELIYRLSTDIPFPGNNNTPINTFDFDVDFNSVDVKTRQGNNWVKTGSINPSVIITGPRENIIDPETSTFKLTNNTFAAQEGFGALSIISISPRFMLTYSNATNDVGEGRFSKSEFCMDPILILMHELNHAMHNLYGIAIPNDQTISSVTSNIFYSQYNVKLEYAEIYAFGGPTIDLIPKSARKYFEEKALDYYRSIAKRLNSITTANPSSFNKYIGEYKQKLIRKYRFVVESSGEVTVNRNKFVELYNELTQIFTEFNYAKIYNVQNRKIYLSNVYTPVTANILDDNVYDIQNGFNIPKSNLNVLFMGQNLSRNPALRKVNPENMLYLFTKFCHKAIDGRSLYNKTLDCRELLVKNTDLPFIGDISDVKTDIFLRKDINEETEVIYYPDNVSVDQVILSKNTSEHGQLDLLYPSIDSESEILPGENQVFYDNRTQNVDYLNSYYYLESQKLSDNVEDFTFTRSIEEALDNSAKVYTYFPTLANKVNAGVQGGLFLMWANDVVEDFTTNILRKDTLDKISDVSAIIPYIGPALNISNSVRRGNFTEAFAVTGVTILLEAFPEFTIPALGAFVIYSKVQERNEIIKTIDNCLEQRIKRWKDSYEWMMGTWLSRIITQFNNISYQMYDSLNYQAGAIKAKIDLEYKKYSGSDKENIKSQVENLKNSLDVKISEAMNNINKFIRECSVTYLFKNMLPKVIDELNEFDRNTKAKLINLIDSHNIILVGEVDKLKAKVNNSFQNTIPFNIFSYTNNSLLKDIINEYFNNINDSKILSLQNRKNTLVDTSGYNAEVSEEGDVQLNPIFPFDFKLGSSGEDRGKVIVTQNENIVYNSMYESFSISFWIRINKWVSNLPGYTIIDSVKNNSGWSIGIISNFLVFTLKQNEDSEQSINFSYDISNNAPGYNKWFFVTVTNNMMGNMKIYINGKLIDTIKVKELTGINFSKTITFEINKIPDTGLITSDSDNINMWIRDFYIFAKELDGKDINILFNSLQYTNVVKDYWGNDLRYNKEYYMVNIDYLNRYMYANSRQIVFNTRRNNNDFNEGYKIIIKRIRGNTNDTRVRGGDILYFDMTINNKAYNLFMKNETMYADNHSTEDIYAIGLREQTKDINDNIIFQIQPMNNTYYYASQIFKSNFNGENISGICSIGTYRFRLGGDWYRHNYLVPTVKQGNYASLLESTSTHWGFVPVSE

[2] = biological target: T2, BoNT/DC mosaic toxin (Clostridium botulinum); experiment: yeast scFv FACS
[3] = biological target: T1, BoNT/C1 holotoxin; experiment: yeast scFv FACS; remark: listed apart in the source
[4] = biological target: T1, BoNT/C1 holotoxin; experiment: IgG KinExA
[5] = biological target: T2, BoNT/DC mosaic toxin; experiment: IgG KinExA

Binder | Kd [1] [nM] | Kd [2] [nM] | Kd [3] [nM] | Kd [4] [nM] | Kd [5] [nM]
4C4 scFv (scFv, V domains shown) VH: QVQLVESGPGLVKPSQTLSLTCSVSGASINNSPYFWNWFRQFPGKGLEWIGYIYWSGSTNYNPSLKSRLAMSVDTSKNQFSLKLTSATAADTAVYYCARDQGGGTVVKENWFDPWGQGTLVTVSS VL: DIVMTQSPSSLSASVGDRLTMTCQASQDIGKHLNWYQQKAGKPPKLLIYGASNLKTGVPSRFSAGVSWTDFTFTISNVQPEDVATYYCQQSYSTPPTFGQGTKVEIKR | 3 | 0.58 | 2.6 | – | –
4C4.1 scFv (scFv, V domains shown) VH: QVQLVESGPGLVKPSQTLSLTCSVSGASINNSPYFWNWFRQFPGKGLEWIGYIYWSGSTNYNPSLKSRLAMSVDTSKNQFSLKLTSATAADTAVYYCARDQGGGTVVKENWFDPWGQGTLVTVSS VL: ETTLTQSPSSLSASVGDRVSITCRASQSISNYLNWYQQKPGKAPKLLIYAASSLQSGVPSRFSGSGSGTDFTLTISSLQPEDFATYYCQQSYSDPPTFGQGTKVEIKR | 1.5 | 0.06 | – | – | –
4C4.2 scFv (scFv, V domains shown) VH: QVQLVESGPGLVKPSQTLSLTCSVSGASINNSPYFWNWFRQFPGKGLEWIGYIYWSGSTNYNPSLKSRLAMSVDTSKNQFSLKLTSATAADTAVYYCARDQGGGTVVKENWFDPWGQGTLVTVSS VL: DIQMTQSPSTLSASVGDRVTITCRASQSIGTYLNWYQQKPGRAPTLLVSRTSNLHTGVPSRFSGDGSGSHFSLTIDSLQPEDFATYYCQQSHTSPVTFGQGTKVEIKR | 1.1 | 0.13 | – | – | –
4C10 scFv (scFv, V domains shown) VH: QVQLVESGGGAVQPGESLRLSCAASGFTFSGFDMHWVRQSPGRGLEWVARISHDGSMADYADSLRGRFTISRDNPKNTLYLHMNSLRVEDTALYYCAKDRWRSGSYPAFEKWGQGTMVTVSS VL: QSVPTQPASVSGSPGQSITISCTGTSSDVGAYNYVSWYQQHPGKAPKLMIYDVSDRPSGVSNRFSGSKSGNTASLTISGLQAEDEADYYCSSYTSSSTYVFGTGTKLTVL | – | 107 | – | – | –
4C4 IgG (antibody, V domains shown) VH: QVQLVESGPGLVKPSQTLSLTCSVSGASINNSPYFWNWFRQFPGKGLEWIGYIYWSGSTNYNPSLKSRLAMSVDTSKNQFSLKLTSATAADTAVYYCARDQGGGTVVKENWFDPWGQGTLVTVSS VL: DIVMTQSPSSLSASVGDRLTMTCQASQDIGKHLNWYQQKAGKPPKLLIYGASNLKTGVPSRFSAGVSWTDFTFTISNVQPEDVATYYCQQSYSTPPTFGQGTKVEIK | – | – | – | 0.835 | 0.577
4C4.1 IgG (antibody, V domains shown) VH: QVQLVESGPGLVKPSQTLSLTCSVSGASINNSPYFWNWFRQFPGKGLEWIGYIYWSGSTNYNPSLKSRLAMSVDTSKNQFSLKLTSATAADTAVYYCARDQGGGTVVKENWFDPWGQGTLVTVSS VL: ETTLTQSPSSLSASVGDRVSITCRASQSISNYLNWYQQKPGKAPKLLIYAASSLQSGVPSRFSGSGSGTDFTLTISSLQPEDFATYYCQQSYSDPPTFGQGTKVEIK | – | – | – | 0.539 | 0.058
4C4.2 IgG (antibody, V domains shown) VH: QVQLVESGPGLVKPSQTLSLTCSVSGASINNSPYFWNWFRQFPGKGLEWIGYIYWSGSTNYNPSLKSRLAMSVDTSKNQFSLKLTSATAADTAVYYCARDQGGGTVVKENWFDPWGQGTLVTVSS VL: DIQMTQSPSTLSASVGDRVTITCRASQSIGTYLNWYQQKPGRAPTLLVSRTSNLHTGVPSRFSGDGSGSHFSLTIDSLQPEDFATYYCQQSHTSPVTFGQGTKVEIK | – | – | – | 0.035 | 0.126
8DC1.2 IgG (antibody, V domains shown) VH: QVTLKESGGGLVQPGRSLTLSCPLSGFTSSDYVLHWVRQAPGTGLDWVAVISSDGTKAYYGDSVKGRFTISRDTSKNTLLLQMNSPRAEDTAIYYCAISTRGPFDIWGHGTMVTVSS VL: DIQMTQSPSSLSAFVGDRITITCRASRGVSNYLAWYQQKPGKAPKLLIYAASSLQSGVPSRFSGSGSGTEFTLTISGLQPDDFATYYCQQYNAYPLTFGGGTKLEIK | – | – | – | 0.736 | –
